Measured values from the nanobody polyreactivity screen of Harvey et al. (2022).

Assay: yeast display, Sf9 membrane polyspecificity reagent, FACS + sequencing; frameworks hold sequencing errors
Summary of the method: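 A synthetic nanobody library was expressed on Saccharomyces cerevisiae BJ5465 by galactose induction for 36–48 hours. The library was stained for 1 hour at 4 °C with 10% biotinylated, detergent-solubilized Sf9 membrane reagent and enriched with streptavidin microbeads before FACS. Low and high (top ~1%) gates were set on anti-HA fluorescence for expression and streptavidin fluorescence for reagent binding, and each polyreactivity label reflects the gate of origin.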

Sequence | polyreactivity (PSR sort gate)
QVQLVESGGGLVQAGGSLRLSCAASGFTIRWYAMGWYRQAPGKERELVAAISSGGGSTYYADSVKGRFTISRDNAKNTVYLQMNSLKPEDTAVYYCNARIQYFEYRGYEYWGQGTQVTVSS | high polyreactivity
QVQLVESGGGLVQAGGSLRLSCAASGFTIRWYTMGWYRQAPWKERELVATINWSGGSTYYADSVKGRFTISRDNAKNTVYLQMNSLIPEDTAVYYCARRQSGTIKTRMDYWGQGTQVTVSS | high polyreactivity
QVQLVESGGGLVQAGGSLRLSCAASGFTISQYAMGWYRQAPGKERELVAAISASGGRTYYADSVKGRFTISRDNAKNTVYLQMNSLKPDDTAVYYCAAKLYVSGGRYWYDYWGQGTQVTVSS | high polyreactivity
QVQLVESGGGLVQAGGSLRLSCAASGFTITRYAMGWYRQAPGKERELVAAISKSGGSTFYADSVKGRFTISRDNAKNTVYLQMNSLKPEDTAVYYCAKVLRAKNSFDYWGQGTQVTVSS | high polyreactivity
QVQLVESGGGLVQAGGSLRLSCAASGFTITYNAMGWYRKAPGKEREFVAAITNNGSTYYADSVKGRFTISRDNAKNTVYLQMNSLKPEDTAVYFCAVDPGYYDEYNYWGQGTQVTVSS | low polyreactivity
QVQLVESGGGLVQAGGSLRLSCAASGFTLAGYAMGWYRQAPGKERELVAAITSSGGSTFYADSVKGRFTISRDNAKNTVYLQMNSLKPEDTAVYYCAAKWAVVSGYGYWGQGTQVTVSS | high polyreactivity
QVQLVESGGGLVQAGGSLRLSCAASGFTLARYAMGWYRQATGKERELVAAITKRGGSTYYADSVKGRFTISRDNAMNTVYLQMNSLKPEDTAVYYCATYKRSSHYDYWGQGTQVTVSS | high polyreactivity
QVQLVESGGGLVQAGGSLRLSCAASGFTLEFYAMGWYRQAPGKERELVARITTSGGSTRYADSVKGRFTISRDNAKNTVYLQMNSLKPEDTAVYYCPARGYGYRNVQTYGYWGQGTQVTVSS | high polyreactivity
QVQLVESGGGLVQAGGSLRLSCAASGFTLEPNTMGWYRQAPGKERELVAGISWSGGSTYYADSVKGRFTISRDNAKNTVYLQMNSLKPEDTAVYYCNDDSGWFCYDYWGQGTQVTVSS | low polyreactivity
QVQLVESGGGLVQAGGSLRLSCAASGFTLFGYAMGWYRPAPGKERELVAAITRSGGSTFYADSVKGRFTISRDNAKNTVYLQMNSLKPEDTAVYYCAAVRSKLYYYWGQGTQVTVSS | high polyreactivity
QVQLVESGGGLVQAGGSLRLSCAASGFTLGDNAMGWYRQAPGTERELVAAISASGGSTYYADSVKGRFTISRDNEKNTVYLQMNSLKPEDTAVYYCILHGYKYDYWGQGTQVTVSS | low polyreactivity
QVQLVESGGGLVQAGGSLRLSCAASGFTLGFYAMGWYRQEPGKERELVAAINWRGGSTYYADSVKGRFTISRDNAKNTVYLLMNSLKPEDTAVYYCNRVYRPSRYDYWGQGTQVTVSS | high polyreactivity
QVQLVESGGGLVQAGGSLRLSCAASGFTLGSYVMGWSRQAPGKERELVARITWSGGSTYYADSVKGRFTISRDNAKNTVYLQMNSLKPEDTAVYYCNTGYWARLAYWPFNYKWDDYWGQGTQVTVSS | high polyreactivity
QVQLVESGGGLVQAGGSLRLSCAASGFTLGTNTMGWYRQAPGKEREFVAAISGRGSSTYYADSVKGRFTISRDNAKNTVYLQMNSLKPEDTAVYYCNKVFWPHPKVVTGNYWGQGTQVTVSS | high polyreactivity
QVQLVESGGGLVQAGGSLRLSCAASGFTLGWYAMGWYRQAPGKERELVASINWDGGSTYYADSVKGRFTISRDNAKNTVYLQMNSLKPEDTAVYYCNAVNKWFPKVGYNYWGQGTQVTVSS | high polyreactivity
QVQLVESGGGLVQAGGSLRLSCAASGFTLHSYAMGWYRQAPGKERELVAAITTGGSTYYADSVKGRFTISRDNAKNTVYLQMNSLKPEDTAVYYCAADVPGNYRKYRYGRASSHDYWGQGTQVTVSS | low polyreactivity
QVQLVESGGGLVQAGGSLRLSCAASGFTLNAYAMGWYRQAPGKERELVAAISRNGGRTYYADSVKGRFTISRDNAKNTVYLQMNSLKPEDTAVYYCNAVSGTIARPYDPYDYWGQGTQVTVSS | high polyreactivity
